Target: ovine CRY1 (Cryptochrome 1), Flag-tagged (sheep)

attenuation of oCRY1 repression of oCLK/oBM1-induced oRev-erb alpha luciferase reporter transactivation in COS7 cells (100 or 200 ng Fbxl vector): 75%
Substance: ovine Fbxl21 full-length, Myc-tagged (from UniProt B3FL73 1-434) (natural protein)

Reference: publication PMC2568807
